T1: Human CD93 recombinant protein (Sino Biological Inc, Catalog #12589-H08H) (human, UniProt Q9NPY3 22-580)
T1 construct: Biotinylated (EZ-LINK NHS-PEG4 biotin) in the BLI assays; also called hCD93; His-tagged human CD93
T1 sequence (looked up): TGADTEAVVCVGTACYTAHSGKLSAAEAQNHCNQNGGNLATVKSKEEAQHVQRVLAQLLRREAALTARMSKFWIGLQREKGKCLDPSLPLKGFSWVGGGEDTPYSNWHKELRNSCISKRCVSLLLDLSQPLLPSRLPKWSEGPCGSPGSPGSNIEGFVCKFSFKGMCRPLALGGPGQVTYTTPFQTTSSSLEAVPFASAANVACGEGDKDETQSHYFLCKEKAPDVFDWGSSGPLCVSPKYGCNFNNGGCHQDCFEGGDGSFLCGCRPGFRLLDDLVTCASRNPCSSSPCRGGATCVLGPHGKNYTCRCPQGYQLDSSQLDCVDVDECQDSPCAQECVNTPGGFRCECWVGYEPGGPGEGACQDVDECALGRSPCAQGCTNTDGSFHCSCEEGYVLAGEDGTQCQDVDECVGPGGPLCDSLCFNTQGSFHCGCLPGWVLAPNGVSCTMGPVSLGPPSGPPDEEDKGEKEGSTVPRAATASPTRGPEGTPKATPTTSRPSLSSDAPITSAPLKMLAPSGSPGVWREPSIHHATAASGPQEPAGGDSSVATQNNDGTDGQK

T2: Human CD93 on cells (human CD93 expressing CHO cells; HUVEC, U937 and KG1a cells) (human, UniProt Q9NPY3 22-652)
T2 construct: whole, on cells; also called hCD93 expressing CHO cells; hCD93 CHO cells
T2 sequence (looked up): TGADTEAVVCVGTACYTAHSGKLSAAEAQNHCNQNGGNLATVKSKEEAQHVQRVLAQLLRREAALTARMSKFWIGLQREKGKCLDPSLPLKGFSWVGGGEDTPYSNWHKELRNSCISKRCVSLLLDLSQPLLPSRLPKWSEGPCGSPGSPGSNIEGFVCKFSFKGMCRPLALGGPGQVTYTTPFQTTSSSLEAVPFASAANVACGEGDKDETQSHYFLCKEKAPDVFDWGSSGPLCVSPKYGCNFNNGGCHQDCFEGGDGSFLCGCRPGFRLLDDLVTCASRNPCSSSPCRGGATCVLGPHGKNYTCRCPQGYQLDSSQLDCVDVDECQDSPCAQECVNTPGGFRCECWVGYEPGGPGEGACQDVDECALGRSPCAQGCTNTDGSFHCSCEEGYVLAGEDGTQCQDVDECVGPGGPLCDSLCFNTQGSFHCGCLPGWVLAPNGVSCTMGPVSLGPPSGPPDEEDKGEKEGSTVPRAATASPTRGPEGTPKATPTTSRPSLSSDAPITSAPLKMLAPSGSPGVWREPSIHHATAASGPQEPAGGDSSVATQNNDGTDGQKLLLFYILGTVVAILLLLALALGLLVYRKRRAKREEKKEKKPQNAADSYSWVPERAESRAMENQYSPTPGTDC

T3: Mouse CD93 on cells (mouse CD93 expressing CHO cells; mouse CD93 expressing HEK cells) (mouse, UniProt O89103 23-644)
T3 construct: whole, on cells; also called mCD93 HEK; CD93-HEK cells
T3 sequence (looked up): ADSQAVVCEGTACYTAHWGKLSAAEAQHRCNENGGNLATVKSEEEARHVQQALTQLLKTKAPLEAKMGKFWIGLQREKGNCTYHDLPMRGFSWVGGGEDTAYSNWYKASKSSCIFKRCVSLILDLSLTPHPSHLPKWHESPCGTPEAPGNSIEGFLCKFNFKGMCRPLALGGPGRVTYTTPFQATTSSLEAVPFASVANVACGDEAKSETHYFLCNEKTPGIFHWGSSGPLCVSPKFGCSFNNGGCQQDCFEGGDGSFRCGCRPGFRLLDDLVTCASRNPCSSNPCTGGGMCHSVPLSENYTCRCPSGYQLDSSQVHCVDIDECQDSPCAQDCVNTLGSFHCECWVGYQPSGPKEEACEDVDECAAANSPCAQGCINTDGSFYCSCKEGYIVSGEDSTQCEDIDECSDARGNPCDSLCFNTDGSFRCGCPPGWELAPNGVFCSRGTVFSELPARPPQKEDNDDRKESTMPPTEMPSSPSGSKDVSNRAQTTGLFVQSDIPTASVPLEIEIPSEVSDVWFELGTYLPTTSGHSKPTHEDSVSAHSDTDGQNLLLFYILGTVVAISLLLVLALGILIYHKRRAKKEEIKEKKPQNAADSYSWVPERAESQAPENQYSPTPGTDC

B1: 7F3 (hybridoma) (antibody, IgG1, V domains shown)
VH: QVQLQQSGADLVRPGASVKLSCKASGYTFTDYEMHWVKQTPVYGLEWIGGIDPETGDTAYNQNFKGKATLTADKSSSAAYMELRSLTSEDSAVYYCTNYGNLYYYAMDYWGQGTSVTVSS
VL: ENVLTQSPAIMSASPGEKVTMTCRASSSVSSSYLHWYQQKSGASPKLWIYSTSNLAFGVPARFSGSGSGTSYSLTISSVEAEDAATYYCQQYSGYPLTFGSGTKLEIK
notes: also called 7F3 mAb; 7F3 mIgG1
B2: Recombinant parental 17B10 with a human CH1 domain and mouse IgG1 CH2 and CH3 Fc domains (antibody, V domains shown)
VH: QVQLQQSGPELVKPGASVKISCKASGYAFSSYWLNWVKQRPGKGLEWFGRIYPGDGDTDYNGKFKGKATLTADKSSSTAYMQLRSLTSEDSAVYFCVRGDGYWAMDYWGQGTSVTVSS
VL: DIVMTQAAFSNPVTLGTSASISCRFSKSLLHSNGITYLYWYLQKPGQSPQLLIYQMSNLASGVPDRFSSSGSGTDFTLRISRVEAEDVGVYYCAQNLELPWTFGGGTKLEIK

Tests used:
[1] = target: T1, Human CD93 recombinant protein (Sino …); assay: ELISA, hCD93-His coated, OD450
Description: His-tagged human CD93 was coated onto a 96 well plate at 1 μg/mL in 1×PBS overnight at 4° C. The plate was washed with ELISA wash buffer (Boston BioProduct, Inc.) and the wells were blocked with ELISA blocking buffer for 1 hour at 37° C. Purified antibodies were serially diluted in ELISA blocking buffer (Boston BioProduct, Inc.) and incubated on the receptor for 1 hour at 37° C. The plate was washed with ELISA wash Buffer. […] The plate was washed with ELISA wash buffer. HRP substrate was added for indirect detection of the antibodies binding to CD93.

[2] = target: T1, Human CD93 recombinant protein (Sino …); assay: summary table, column ELISA (hCD93)
[3] = target: T1, Human CD93 recombinant protein (Sino …); assay: summary table, column Octet (hCD93)
[4] = target: T2, Human CD93 on cells (human CD93 …); assay: flow cytometry, CHO-hCD93 cells, APC-A
[5] = target: T2, Human CD93 on cells (human CD93 …); assay: summary table, column FACS (HUVEC cells)
[6] = target: T2, Human CD93 on cells (human CD93 …); assay: summary table, column FACS (CHO-hCD93 cells)
[7] = target: T3, Mouse CD93 on cells (mouse CD93 …); assay: summary table; method and form of mouse CD93 not given
[8] = target: T1, Human CD93 recombinant protein (Sino …); assay: BLI (Octet), human CD93; sheet prints Anti-Penta-HIS(HIS1K) biosensor
[9] = target: T2, Human CD93 on cells (human CD93 …); assay: flow cytometry blocking assay, CHO-hCD93 cells, antibody 50 ug/ml then MMRN2 0.5 ug/ml, APC-A
Description: (§1) After incubation, the cells were washed with FACS buffer and incubated with anti-His conjugated APC or streptavidin conjugated APC at a ratio of 1:500 for 30 minutes at 4° C. After washing with FACS buffer twice, the samples were analyzed and data acquired in NovoCyte Flow.

[10] = target: T2, Human CD93 on cells (human CD93 …); assay: flow cytometry blocking assay, CHO-hCD93 cells, antibody 50 ug/ml then MMRN2 0.1 ug/ml, APC-A
Description: as §1

[11] = target: T2, Human CD93 on cells (human CD93 …); assay: flow cytometry, CHO cells overexpressing human CD93, antibody 0.01ug, mIgG1 as control, APC-A
[12] = target: T2, Human CD93 on cells (human CD93 …); assay: flow cytometry titration on human CD93 CHO cells; column head printed kd, unit from the axis log (concentration (M))
Description: Cells were quenched with media then counted. Cells were resuspended in FACS buffer (ice cold PBS with 0.5% BSA) and human serum was added to 20% (10% final volume) and put on ice for approximately 20 minutes. 5×10⁴ cells were seeded per well in 100 μL and incubated with serial diluted anti-CD93 antibodies in 100 μL on ice for 2 hours. Samples were then washed by spinning samples at 1200 rpm for 5 minutes. Media was discarded and cells were resuspended in 200 μL ice cold FACS buffer. Cells were washed again and resuspended in 100 μL of secondary Antibody, AlexaFluor647 conjugated anti-human IgG or anti-mouse IgG antibodies (Jackson ImmunoResearch), diluted 1:500 in FACS buffer. Plates were covered with foil to protect from like and incubated for 1 hour on ice. Cells were washed again resuspended in 200 μL ice cold FACS buffer. Cells were washed again and were resuspended in 200 μL fixing solution (PBS with 1% formaldehyde). Samples were stored at 4° C. covered in foil, then were acquired in NovoCyte Flow Cytometer and analyzed by NovoExpress software.

[13] = target: T2, Human CD93 on cells (human CD93 …); assay: flow cytometry titration on U937 cells -human serum; column head printed kd, unit from the axis log (concentration (M))
Description: Cells were quenched with media then counted. Cells were resuspended in FACS buffer (ice cold PBS with 0.5% BSA) and put on ice ˜20 min. 5×10⁴ cells were seeded per well in 100 μL and incubated with serial diluted anti-CD93 antibodies in 100 μL on ice for 2 hours. Samples were then washed by spinning samples at 1200 rpm for 5 minutes. Media was discarded and cells were resuspended in 200 μL ice cold FACS buffer. Cells were washed again and resuspended in 100 μL of secondary Antibody, AlexaFluor647 conjugated anti-human IgG or anti-mouse IgG antibodies (Jackson ImmunoResearch), diluted 1:500 in FACS buffer. Plates were covered with foil to protect from light and were incubated for 1 hour on ice. Samples were then washed again and resuspended in 200 μL ice cold FACS buffer. Cells were washed again and resuspended in 200 μL fixing solution (PBS with 1% formaldehyde). Samples were stored at 4° C. covered in foil, ands were subsequently acquired in NovoCyte Flow Cytometer and analyzed by NovoExpress software.

[14] = target: T2, Human CD93 on cells (human CD93 …); assay: flow cytometry titration on HUVEC cells +human serum; column head printed kd, unit from the axis log (concentration (M))
Description: (§2) Recombinant parental anti-CD93 antibodies were evaluated for their ability to bind to HUVEC cells in the presence or absence of human serum. […] Antibodies were purified using Protein G Sepharose. The resulting antibodies were tested for its binding capacity to a variety of cells that express CD93. […] Cells were quenched with media then counted. Cells were resuspended in FACS buffer (ice cold PBS with 0.5% BSA) and human serum was added to 20% (10% final volume) and put on ice for approximately 20 minutes. 5×10⁴ cells were seeded per well in 100 μL media and incubated with serial diluted anti-CD93 antibodies in 100 μL on ice for 2 hours. Cells were then washed by spinning cells at 1200 rpm for 5 min. Media was discarded and cells were resuspended in 200 μL ice cold FACS buffer. The wash step was repeated and cells were resuspended in 100 μL of secondary antibody, AlexaFluor647 conjugated anti-human IgG or anti-mouse IgG antibodies (Jackson ImmunoResearch), diluted 1:500 in FACS buffer. Plates were blocked from light and incubated 1 hour at 4° C. Cells were then washed again then were resuspended in 200 μL ice cold FACS buffer. Cells were washed again and resuspended in 200 μL fixing solution (PBS with 1% formaldehyde). Samples were stored at 4° C. covered in foil, then were acquired in NovoCyte Flow Cytometer and analyzed by NovoExpress software.

[15] = target: T2, Human CD93 on cells (human CD93 …); assay: flow cytometry titration on HUVEC cells -human serum; column head printed kd, unit from the axis log (concentration (M))
Description: as §2

| Binder | EC50 [1] | EC50 [2] | Kd [3] | M3 gate, % of cells [4] | EC50 [5] | EC50 [6] | binding result [7] | Kd [8] | koff [8] | kon [8] | M3 gate, % of cells positive for MMRN2 after the antibody [9] | M3 gate, % of cells positive for MMRN2 after the antibody [10] | M2 gate, % of cells [11] | Kd [12] | Kd [13] | Kd [14] | Kd [15] |
| --- | --- | --- | --- | --- | --- | --- | --- | --- | --- | --- | --- | --- | --- | --- | --- | --- | --- |
| B1 | 0.0667 nM | 0.0667 nM | 0.493 nM | 96.3% | 2.94 nM | 0.21 nM | no binding | 1.26 nM | 0.000478 s⁻¹ | 381000 M⁻¹ s⁻¹ | 9.93% | 12.2% | – | – | – | – | – |
| B2 | – | – | – | – | – | – | – | – | – | – | – | – | 98.4% | 0.163 nM | 0.0666 nM | 0.196 nM | 0.111 nM |

From patent publication US20230365705A1 (DYNAMICURE BIOTECHNOLOGY, published 2023)
